These results are taken from PMC11075064.

The test has as its target KCC2 (SLC12A5), neuron-specific K+/Cl- transporter (mouse (endogenous in brain)) (UniProt Q91V14). Nature of the test: co-IP.
Sequence of UniProt Q91V14 (Q91V14 whole entry): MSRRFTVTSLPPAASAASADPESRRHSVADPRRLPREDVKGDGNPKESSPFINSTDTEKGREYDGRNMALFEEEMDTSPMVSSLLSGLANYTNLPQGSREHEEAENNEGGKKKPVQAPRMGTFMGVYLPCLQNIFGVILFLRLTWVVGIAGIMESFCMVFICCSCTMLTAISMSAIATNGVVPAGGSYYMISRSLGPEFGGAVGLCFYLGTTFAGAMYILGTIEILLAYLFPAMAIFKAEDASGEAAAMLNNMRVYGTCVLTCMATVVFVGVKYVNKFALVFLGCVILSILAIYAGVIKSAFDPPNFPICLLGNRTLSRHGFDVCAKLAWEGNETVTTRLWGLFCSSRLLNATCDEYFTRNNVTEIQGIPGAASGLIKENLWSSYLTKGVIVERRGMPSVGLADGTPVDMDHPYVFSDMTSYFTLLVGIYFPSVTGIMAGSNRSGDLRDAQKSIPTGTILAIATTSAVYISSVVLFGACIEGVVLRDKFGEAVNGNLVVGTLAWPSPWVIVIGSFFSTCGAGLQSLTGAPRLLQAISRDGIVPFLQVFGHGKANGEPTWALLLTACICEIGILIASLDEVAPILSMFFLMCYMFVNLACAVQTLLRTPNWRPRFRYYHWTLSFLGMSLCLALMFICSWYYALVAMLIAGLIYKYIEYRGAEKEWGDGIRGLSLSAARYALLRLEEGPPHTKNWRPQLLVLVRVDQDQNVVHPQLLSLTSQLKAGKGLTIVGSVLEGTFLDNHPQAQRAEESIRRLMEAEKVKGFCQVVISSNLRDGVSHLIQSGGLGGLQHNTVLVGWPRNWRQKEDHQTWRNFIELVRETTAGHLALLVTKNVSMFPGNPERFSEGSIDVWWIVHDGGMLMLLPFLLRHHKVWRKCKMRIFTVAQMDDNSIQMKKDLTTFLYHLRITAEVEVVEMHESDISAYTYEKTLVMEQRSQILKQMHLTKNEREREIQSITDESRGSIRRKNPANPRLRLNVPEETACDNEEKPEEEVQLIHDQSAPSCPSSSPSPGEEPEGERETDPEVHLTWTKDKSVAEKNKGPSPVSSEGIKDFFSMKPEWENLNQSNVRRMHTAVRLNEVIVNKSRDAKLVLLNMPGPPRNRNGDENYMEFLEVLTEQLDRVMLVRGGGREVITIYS

“catalytic subunit of protein phosphatase-1 (PP1) (from UniProt P62137 1-330) (enzyme)”: the ratio of PP1/KCC2 immunoreactivity in LMTK3 KO mice, percent of WT was 28.6 % of WT.
